Measurements as given in patent publication US20260055162A1.

Key:
Experiment in all cases: cell-based or functional assay
[1] = biological target: AA-TGFB-021 (TGFB-021), TGF-BR2 ECD-CD28 TM-CD3z ICD
[2] = biological target: AA-TGFB-059 (TGFB-059), TGF-BR2 ECD-CD28 Long TM-TRAF1 ICD
[3] = biological target: AA-TGFB-076 (TGFB-076), TGF-BR2 ECD-EPOR TM-EPOR ICD
[4] = biological target: AA-TGFB-079 (TGFB-079), TGF-BR2 ECD-FGFR1 TM-FGFR1 ICD
[5] = biological target: AA-TGFB-019 (TGFB-019), TGF-BR2 ECD-CD28 TM-CD28 ICD
Sequence of AA-TGFB-019 (TGFB-019), TGF-BR2 ECD-CD28 TM-CD28 ICD (chain, as listed by the source limits assumed, form in doubt): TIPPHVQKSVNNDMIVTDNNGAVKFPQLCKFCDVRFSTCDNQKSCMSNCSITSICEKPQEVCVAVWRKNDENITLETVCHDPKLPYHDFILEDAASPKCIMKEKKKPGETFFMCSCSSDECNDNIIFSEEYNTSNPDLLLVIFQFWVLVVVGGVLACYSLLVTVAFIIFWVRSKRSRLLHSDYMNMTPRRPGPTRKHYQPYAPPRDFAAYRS

[6] = biological target: AA-TGFB-057 (TGFB-057), TGF-BR2 ECD-CD28 Long TM-MYD88 ICD
[7] = biological target: AA-TGFB-080 (TGFB-080), TGF-BR2 ECD-DNAM1 TM-DNAM1 ICD
[8] = biological target: AA-TGFB-068 (TGFB-068), TGF-BR2 ECD-FCGR3A TM-FCGR3A ICD
[9] = biological target: AA-TGFB-051 (TGFB-051), TGF-BR2 ECD-CD28 TM-DAP10v2 ICD
[10] = biological target: AA-TGFB-065 (TGFB-065), TGF-BR2 ECD-CD28 Long TM-BLNK ICD
Sequence of AA-TGFB-065 (TGFB-065), TGF-BR2 ECD-CD28 Long TM-BLNK ICD (chain, as listed by the source limits assumed, form in doubt): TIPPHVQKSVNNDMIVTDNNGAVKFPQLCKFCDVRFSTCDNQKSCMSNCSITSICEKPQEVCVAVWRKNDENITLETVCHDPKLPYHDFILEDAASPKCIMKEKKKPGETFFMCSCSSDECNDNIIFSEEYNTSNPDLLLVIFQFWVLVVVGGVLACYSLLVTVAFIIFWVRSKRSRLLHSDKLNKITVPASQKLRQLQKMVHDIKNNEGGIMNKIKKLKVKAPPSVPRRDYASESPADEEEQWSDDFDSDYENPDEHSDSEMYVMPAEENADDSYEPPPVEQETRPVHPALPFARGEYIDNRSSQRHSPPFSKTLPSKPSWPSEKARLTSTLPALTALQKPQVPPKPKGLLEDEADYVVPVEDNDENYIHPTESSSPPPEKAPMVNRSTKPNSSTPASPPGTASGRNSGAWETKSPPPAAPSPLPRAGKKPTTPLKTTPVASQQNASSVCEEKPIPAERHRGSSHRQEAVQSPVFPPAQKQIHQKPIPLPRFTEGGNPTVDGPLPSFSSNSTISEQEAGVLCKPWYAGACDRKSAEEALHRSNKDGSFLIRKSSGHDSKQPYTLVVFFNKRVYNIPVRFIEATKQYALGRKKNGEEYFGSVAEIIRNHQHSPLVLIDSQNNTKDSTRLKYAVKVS

[11] = biological target: AA-TGFB-069 (TGFB-069), TGF-BR2 ECD-2B4 TM-2B4 ICD
Sequence of AA-TGFB-069 (TGFB-069), TGF-BR2 ECD-2B4 TM-2B4 ICD (chain, as listed by the source limits assumed, form in doubt): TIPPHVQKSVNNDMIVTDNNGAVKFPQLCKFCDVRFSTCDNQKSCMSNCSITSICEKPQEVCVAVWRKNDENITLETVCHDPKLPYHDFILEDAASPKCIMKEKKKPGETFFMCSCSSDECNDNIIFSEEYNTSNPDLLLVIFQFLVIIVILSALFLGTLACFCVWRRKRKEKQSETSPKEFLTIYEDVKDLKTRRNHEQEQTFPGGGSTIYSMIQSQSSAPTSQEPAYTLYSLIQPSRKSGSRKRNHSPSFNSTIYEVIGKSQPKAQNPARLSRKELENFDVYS

[12] = biological target: AA-TGFB-061 (TGFB-061), TGF-BR2 ECD-CD28 Long TM-TRAF3 ICD
Sequence of AA-TGFB-061 (TGFB-061), TGF-BR2 ECD-CD28 Long TM-TRAF3 ICD (chain, as listed by the source limits assumed, form in doubt): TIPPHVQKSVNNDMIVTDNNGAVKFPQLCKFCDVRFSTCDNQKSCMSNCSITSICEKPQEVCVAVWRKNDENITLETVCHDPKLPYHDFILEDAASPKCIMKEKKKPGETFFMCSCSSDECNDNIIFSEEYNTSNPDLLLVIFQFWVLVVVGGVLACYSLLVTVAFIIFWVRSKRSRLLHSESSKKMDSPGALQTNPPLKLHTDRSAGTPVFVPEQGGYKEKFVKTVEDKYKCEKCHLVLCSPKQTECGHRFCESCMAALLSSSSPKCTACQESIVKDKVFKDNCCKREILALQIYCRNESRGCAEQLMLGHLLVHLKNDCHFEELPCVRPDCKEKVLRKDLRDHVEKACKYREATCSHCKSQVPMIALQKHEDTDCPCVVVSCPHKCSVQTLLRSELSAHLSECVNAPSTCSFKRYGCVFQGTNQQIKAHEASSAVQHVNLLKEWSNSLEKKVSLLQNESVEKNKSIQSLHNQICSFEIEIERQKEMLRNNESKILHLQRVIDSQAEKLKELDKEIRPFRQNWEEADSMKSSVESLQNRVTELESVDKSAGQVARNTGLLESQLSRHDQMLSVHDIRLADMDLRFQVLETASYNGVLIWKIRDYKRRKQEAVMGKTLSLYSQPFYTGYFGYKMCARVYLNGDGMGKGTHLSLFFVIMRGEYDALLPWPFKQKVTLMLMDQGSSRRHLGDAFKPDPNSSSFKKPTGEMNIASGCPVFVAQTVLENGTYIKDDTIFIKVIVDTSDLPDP

[13] = biological target: AA-TGFB-073 (TGFB-073), TGF-BR2 ECD-SLAMF7 TM-SLAMF7 ICD
Sequence of AA-TGFB-073 (TGFB-073), TGF-BR2 ECD-SLAMF7 TM-SLAMF7 ICD (chain, as listed by the source limits assumed, form in doubt): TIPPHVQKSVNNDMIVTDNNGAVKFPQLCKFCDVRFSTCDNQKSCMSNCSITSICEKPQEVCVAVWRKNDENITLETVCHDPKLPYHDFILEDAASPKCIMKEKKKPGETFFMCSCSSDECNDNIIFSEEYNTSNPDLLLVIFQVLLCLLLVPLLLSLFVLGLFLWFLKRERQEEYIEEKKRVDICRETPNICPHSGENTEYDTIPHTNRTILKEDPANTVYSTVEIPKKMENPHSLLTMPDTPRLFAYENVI

[14] = biological target: AA-TGFB-082 (TGFB-082), TGF-BR2 ECD-NKp46 TM-NKp46 ICD
Sequence of AA-TGFB-082 (TGFB-082), TGF-BR2 ECD-NKp46 TM-NKp46 ICD (chain, as listed by the source limits assumed, form in doubt): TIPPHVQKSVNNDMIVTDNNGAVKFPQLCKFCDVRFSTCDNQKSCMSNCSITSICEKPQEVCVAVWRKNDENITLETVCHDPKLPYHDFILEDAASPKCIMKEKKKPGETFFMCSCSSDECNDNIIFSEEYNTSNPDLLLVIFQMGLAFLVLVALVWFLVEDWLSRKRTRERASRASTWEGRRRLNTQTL

[15] = biological target: AA-TGFB-071 (TGFB-071), TGF-BR2 ECD-SLAMF5 TM-SLAMF5 ICD
Sequence of AA-TGFB-071 (TGFB-071), TGF-BR2 ECD-SLAMF5 TM-SLAMF5 ICD (chain, as listed by the source limits assumed, form in doubt): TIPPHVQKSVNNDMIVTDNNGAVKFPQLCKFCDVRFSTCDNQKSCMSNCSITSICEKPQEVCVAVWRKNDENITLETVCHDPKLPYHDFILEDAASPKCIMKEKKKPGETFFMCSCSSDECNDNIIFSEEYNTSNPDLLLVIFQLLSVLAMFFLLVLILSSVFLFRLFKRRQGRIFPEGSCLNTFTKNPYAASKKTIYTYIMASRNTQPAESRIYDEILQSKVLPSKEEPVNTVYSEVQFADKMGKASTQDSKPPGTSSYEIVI

[16] = biological target: AA-TGFB-060 (TGFB-060), TGF-BR2 ECD-CD28 Long TM-TRAF2 ICD
Sequence of AA-TGFB-060 (TGFB-060), TGF-BR2 ECD-CD28 Long TM-TRAF2 ICD (chain, as listed by the source limits assumed, form in doubt): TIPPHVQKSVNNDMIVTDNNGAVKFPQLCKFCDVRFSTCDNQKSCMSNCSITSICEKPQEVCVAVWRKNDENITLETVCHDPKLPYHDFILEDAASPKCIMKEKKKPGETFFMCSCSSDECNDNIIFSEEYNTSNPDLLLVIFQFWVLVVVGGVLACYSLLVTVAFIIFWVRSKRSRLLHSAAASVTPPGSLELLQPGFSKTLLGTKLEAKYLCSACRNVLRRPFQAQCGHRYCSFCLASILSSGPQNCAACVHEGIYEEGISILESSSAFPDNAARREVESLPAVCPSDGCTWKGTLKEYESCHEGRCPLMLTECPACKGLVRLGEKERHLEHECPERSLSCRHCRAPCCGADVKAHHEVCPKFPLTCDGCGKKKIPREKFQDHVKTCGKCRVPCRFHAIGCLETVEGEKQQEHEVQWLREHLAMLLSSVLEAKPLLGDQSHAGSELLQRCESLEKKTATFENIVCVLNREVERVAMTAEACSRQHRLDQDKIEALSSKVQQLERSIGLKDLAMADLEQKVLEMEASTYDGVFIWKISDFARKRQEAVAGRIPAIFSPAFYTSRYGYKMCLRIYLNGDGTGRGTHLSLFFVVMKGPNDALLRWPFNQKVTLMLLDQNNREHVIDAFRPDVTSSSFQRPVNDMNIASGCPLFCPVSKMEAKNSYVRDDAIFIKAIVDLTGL

[17] = biological target: AA-TGFB-078 (TGFB-078), TGF-BR2 ECD-CSF1R TM-CSF1R ICD
Sequence of AA-TGFB-078 (TGFB-078), TGF-BR2 ECD-CSF1R TM-CSF1R ICD (chain, as listed by the source limits assumed, form in doubt): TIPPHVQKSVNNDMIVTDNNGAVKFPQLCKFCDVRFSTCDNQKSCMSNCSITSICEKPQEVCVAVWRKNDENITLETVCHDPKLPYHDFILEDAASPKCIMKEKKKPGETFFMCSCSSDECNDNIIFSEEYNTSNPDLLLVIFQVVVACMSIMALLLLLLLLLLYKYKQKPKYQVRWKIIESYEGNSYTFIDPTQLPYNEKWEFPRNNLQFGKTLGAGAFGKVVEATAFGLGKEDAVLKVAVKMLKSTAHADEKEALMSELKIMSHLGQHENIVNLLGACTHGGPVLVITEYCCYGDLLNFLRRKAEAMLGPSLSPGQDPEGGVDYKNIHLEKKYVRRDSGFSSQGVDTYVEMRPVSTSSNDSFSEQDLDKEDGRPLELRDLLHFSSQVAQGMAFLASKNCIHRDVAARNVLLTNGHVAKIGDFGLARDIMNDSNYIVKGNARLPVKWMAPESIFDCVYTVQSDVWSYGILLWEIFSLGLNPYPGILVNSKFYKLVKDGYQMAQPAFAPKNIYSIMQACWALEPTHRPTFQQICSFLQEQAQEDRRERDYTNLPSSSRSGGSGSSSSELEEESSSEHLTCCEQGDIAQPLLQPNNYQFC

Sequence of AA-TGFB-021 (TGFB-021), TGF-BR2 ECD-CD28 TM-CD3z ICD (chain, as listed by the source limits assumed, form in doubt): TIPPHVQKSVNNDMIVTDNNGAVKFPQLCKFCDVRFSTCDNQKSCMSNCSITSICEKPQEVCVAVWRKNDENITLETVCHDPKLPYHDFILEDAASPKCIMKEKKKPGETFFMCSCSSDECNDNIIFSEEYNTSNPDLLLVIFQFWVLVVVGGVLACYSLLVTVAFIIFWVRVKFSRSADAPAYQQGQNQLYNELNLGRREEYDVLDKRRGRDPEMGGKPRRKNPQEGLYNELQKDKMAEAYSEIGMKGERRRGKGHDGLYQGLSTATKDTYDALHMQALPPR
Sequence of AA-TGFB-059 (TGFB-059), TGF-BR2 ECD-CD28 Long TM-TRAF1 ICD (chain, as listed by the source limits assumed, form in doubt): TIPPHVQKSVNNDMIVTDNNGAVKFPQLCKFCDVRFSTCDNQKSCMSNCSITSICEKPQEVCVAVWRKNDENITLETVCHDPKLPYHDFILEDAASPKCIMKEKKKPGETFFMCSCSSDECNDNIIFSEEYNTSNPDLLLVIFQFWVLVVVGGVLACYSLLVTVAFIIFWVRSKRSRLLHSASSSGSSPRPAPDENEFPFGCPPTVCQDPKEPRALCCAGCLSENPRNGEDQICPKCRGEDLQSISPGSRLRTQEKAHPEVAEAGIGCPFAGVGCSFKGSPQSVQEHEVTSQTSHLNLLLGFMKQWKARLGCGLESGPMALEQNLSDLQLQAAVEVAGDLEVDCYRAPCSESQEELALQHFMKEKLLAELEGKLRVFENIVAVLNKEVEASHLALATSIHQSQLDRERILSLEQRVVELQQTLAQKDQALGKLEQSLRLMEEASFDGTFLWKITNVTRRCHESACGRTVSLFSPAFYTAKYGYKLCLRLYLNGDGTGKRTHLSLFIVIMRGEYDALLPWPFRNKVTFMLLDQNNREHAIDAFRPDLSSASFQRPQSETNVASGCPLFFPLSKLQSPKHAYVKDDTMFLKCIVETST
Sequence of recombinant TGF-B1 cytokine (P01137 279-390 limits assumed): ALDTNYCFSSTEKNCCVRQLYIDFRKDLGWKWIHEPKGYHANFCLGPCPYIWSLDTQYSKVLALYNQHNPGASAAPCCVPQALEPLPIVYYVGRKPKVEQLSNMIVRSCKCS

recombinant TGF-B1 cytokine (from UniProt P01137 279-390) (ligand)
5-Day Fold Expansion of NK cells, 10 ng/mL TGF-B1 [1]: 0.45 fold | Average % Killing (SKOV-3), 10 ng/mL TGF-B1 [1]: 2.26% | CD69, fold-change of MFI over no stimulation, High (0.05 ug/mL) [1]: 93 fold | CD69, fold-change of MFI over no stimulation, Low (0.002 ug/mL) [1]: 21.5 fold | CD69, fold-change of MFI over no stimulation, Med. (0.01 ug/mL) [1]: 62.2 fold | GFP, fold-change of MFI over no stimulation, High (0.05 ug/mL) [1]: 10.1 fold | GFP, fold-change of MFI over no stimulation, Low (0.002 ug/mL) [1]: 2.8 fold | GFP, fold-change of MFI over no stimulation, Med. (0.01 ug/mL) [1]: 9.3 fold | 5-Day Fold Expansion of NK cells, 10 ng/mL TGF-B1 [2]: 0.9 fold | Average % Killing (SKOV-3), 10 ng/mL TGF-B1 [2]: 7.99% | Average IFNg Secretion, 10 ng/mL TGF-B1 [2]: 3060 pg/mL | Average IP-10 Secretion, 10 ng/mL TGF-B1 [2]: 1300 | 5-Day Fold Expansion of NK cells, 10 ng/mL TGF-B1 [3]: 2.94 fold | Average % Killing (SKOV-3), 10 ng/mL TGF-B1 [3]: 14.3% | Average IFNg Secretion, 10 ng/mL TGF-B1 [3]: 6650 pg/mL | Average IP-10 Secretion, 10 ng/mL TGF-B1 [3]: 1340 | 5-Day Fold Expansion of NK cells, 10 ng/mL TGF-B1 [4]: 1.49 fold | Average % Killing (SKOV-3), 10 ng/mL TGF-B1 [4]: 9.28% | Average IFNg Secretion, 10 ng/mL TGF-B1 [4]: 3580 pg/mL | Average IP-10 Secretion, 10 ng/mL TGF-B1 [4]: 685 | 5-Day Fold Expansion of NK cells, 10 ng/mL TGF-B1 [5]: 1.99 fold | Average % Killing (SKOV-3), 10 ng/mL TGF-B1 [5]: 21.1% | Average IFNg Secretion, 10 ng/mL TGF-B1 [5]: 6700 pg/mL | Average IP-10 Secretion, 10 ng/mL TGF-B1 [5]: 1170 | 5-Day Fold Expansion of NK cells, 10 ng/mL TGF-B1 [6]: 1.02 fold | Average % Killing (SKOV-3), 10 ng/mL TGF-B1 [6]: 11.2% | Average IFNg Secretion, 10 ng/mL TGF-B1 [6]: 7770 pg/mL | Average IP-10 Secretion, 10 ng/mL TGF-B1 [6]: 2760 | 5-Day Fold Expansion of NK cells, 10 ng/mL TGF-B1 [7]: 2.11 fold | Average % Killing (SKOV-3), 10 ng/mL TGF-B1 [7]: 10.8% | Average IFNg Secretion, 10 ng/mL TGF-B1 [7]: 4380 pg/mL | Average IP-10 Secretion, 10 ng/mL TGF-B1 [7]: 1230 | 5-Day Fold Expansion of NK cells, 10 ng/mL TGF-B1 [8]: 1.55 fold | Average % Killing (SKOV-3), 10 ng/mL TGF-B1 [8]: 8.25% | Average IFNg Secretion, 10 ng/mL TGF-B1 [8]: 2820 pg/mL | Average IP-10 Secretion, 10 ng/mL TGF-B1 [8]: 686 | 5-Day Fold Expansion of NK cells, 10 ng/mL TGF-B1 [9]: 1.42 fold | Average % Killing (SKOV-3), 10 ng/mL TGF-B1 [9]: 11.4% | Average IFNg Secretion, 10 ng/mL TGF-B1 [9]: 4200 pg/mL | Average IP-10 Secretion, 10 ng/mL TGF-B1 [9]: 671 | 5-Day Fold Expansion of NK cells, 10 ng/mL TGF-B1 [10]: 0.71 fold | Average % Killing (SKOV-3), 10 ng/mL TGF-B1 [10]: 9.68% | Average IFNg Secretion, 10 ng/mL TGF-B1 [10]: 3130 pg/mL | Average IP-10 Secretion, 10 ng/mL TGF-B1 [10]: 1030 | 5-Day Fold Expansion of NK cells, 10 ng/mL TGF-B1 [11]: 3.86 fold | Average % Killing (SKOV-3), 10 ng/mL TGF-B1 [11]: 14.4% | Average IFNg Secretion, 10 ng/mL TGF-B1 [11]: > 9000 pg/mL | Average IP-10 Secretion, 10 ng/mL TGF-B1 [11]: 2340 | 5-Day Fold Expansion of NK cells, 10 ng/mL TGF-B1 [12]: 1.29 fold | Average % Killing (SKOV-3), 10 ng/mL TGF-B1 [12]: 8.9% | Average IFNg Secretion, 10 ng/mL TGF-B1 [12]: 3090 pg/mL | Average IP-10 Secretion, 10 ng/mL TGF-B1 [12]: 762 | 5-Day Fold Expansion of NK cells, 10 ng/mL TGF-B1 [13]: 3.08 fold | Average % Killing (SKOV-3), 10 ng/mL TGF-B1 [13]: 13.1% | Average IFNg Secretion, 10 ng/mL TGF-B1 [13]: 6910 pg/mL | Average IP-10 Secretion, 10 ng/mL TGF-B1 [13]: 1420 | 5-Day Fold Expansion of NK cells, 10 ng/mL TGF-B1 [14]: 3.26 fold | Average % Killing (SKOV-3), 10 ng/mL TGF-B1 [14]: 20.4% | Average IFNg Secretion, 10 ng/mL TGF-B1 [14]: 7170 pg/mL | Average IP-10 Secretion, 10 ng/mL TGF-B1 [14]: 1350 | 5-Day Fold Expansion of NK cells, 10 ng/mL TGF-B1 [15]: 3.06 fold | Average % Killing (SKOV-3), 10 ng/mL TGF-B1 [15]: 18.8% | Average IFNg Secretion, 10 ng/mL TGF-B1 [15]: > 9000 pg/mL | Average IP-10 Secretion, 10 ng/mL TGF-B1 [15]: 2300 | 5-Day Fold Expansion of NK cells, 10 ng/mL TGF-B1 [16]: 1.11 fold | Average % Killing (SKOV-3), 10 ng/mL TGF-B1 [16]: 8.77% | Average IFNg Secretion, 10 ng/mL TGF-B1 [16]: 3070 pg/mL | Average IP-10 Secretion, 10 ng/mL TGF-B1 [16]: 1230 | 5-Day Fold Expansion of NK cells, 10 ng/mL TGF-B1 [17]: 2.14 fold | Average % Killing (SKOV-3), 10 ng/mL TGF-B1 [17]: 15.2% | Average IFNg Secretion, 10 ng/mL TGF-B1 [17]: 6320 pg/mL | Average IP-10 Secretion, 10 ng/mL TGF-B1 [17]: 1000
